Laboratory results: the supplement of paper PMC10567573

B1: ZNF24 (parent)
chain: YGETCFPKGRFERKRNPSRKKQHI
B2: VPS39 (parent)
chain: QQVKCIITEEKVCMVCKKKIGNSA

Variants of: B1
Experiment: protein stability index of a GFP-peptide fusion (GPS, HEK-293T) (PSI 1-6); higher = more stable
Settings: c terminus: a fixed tail appended
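Further: lentivirally expressed fusions sorted by FACS into six bins by GFP to DsRed ratio, PSI derived from sequencing read proportions per bin multiplied by bin number.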

Protein stability index: each site, then its substitutions
R15: Q 2.88 | S 2.79 | T 2.46 | V 2.83 | W 2.76 | Y 2.02
N16: A 2.5 | C 2.14 | D 2.15 | E 2.89 | F 2.23 | G 2.5 | I 2.7 | K 2.9 | L 2.49 | M 2.71 | P 2.31 | Q 2.87 | R 2.63 | S 2.92 | T 2.89 | V 1.94 | W 2.21 | Y 2.82
P17: A 2.56 | C 2.37 | D 3.58 | E 2.93 | F 2.78 | G 2.97 | H 3.04 | K 2.5 | L 2.5 | M 2.79 | N 3 | Q 2.95 | R 2.89 | S 2.62 | T 3.09 | V 2.25 | W 2.52 | Y 2.34
S18: A 2.55 | C 2.76 | D 3.07 | E 3.63 | F 2.71 | G 3.53 | H 2.34 | I 2.88 | K 3.1 | L 3.16 | M 2.77 | N 3.87 | P 2.48 | Q 3.03 | R 2.82 | T 2.72 | V 2.62 | W 2.22 | Y 2.02
R19: A 3.07 | D 2.95 | E 2.56 | F 1.83 | G 2.69 | H 3.22 | I 2 | K 2.82 | L 2.06 | M 2.89 | N 2.86 | P 3.28 | Q 2.26 | S 3.38 | T 3.5 | V 2.89 | W 2.42 | Y 2.68
K20: A 3.31 | C 2.1 | D 3.48 | E 2.77 | F 2.45 | G 3.29 | H 3.09 | I 2.63 | L 2.05 | M 2.08 | N 3.08 | P 2.49 | Q 2.34 | R 2.34 | S 3.17 | T 2.44 | V 2.66 | W 1.99 | Y 2.76
K21: A 2.78 | C 2.45 | D 3.11 | E 3.1 | F 2.09 | G 3.16 | H 2.73 | I 2.38 | L 1.95 | M 2.08 | N 3.23 | P 2.61 | Q 2.59 | R 2.85 | S 3.05 | T 2.97 | V 2.2 | W 2.17 | Y 3.23
Q22: A 2.97 | C 2.14 | D 2.9 | E 3.19 | F 2.23 | G 2.95 | H 2.33 | I 2.28 | K 2.73 | L 2.4 | M 2.61 | N 2.94 | P 2.59 | R 2.69 | S 3.4 | T 2.67 | V 2.4 | W 2.25 | Y 2.46
H23: A 2.42 | C 2.85 | D 2.42 | E 2.68 | F 2.95 | G 3.25 | I 2.57 | K 3.22 | L 2.57 | M 3.14 | N 2.85 | P 3.1 | Q 2.95 | R 2.73 | S 2.56 | T 2.43 | V 2.78 | W 2.3 | Y 2.76
I24: A 3.43 | C 2.9 | D 2.6 | E 3.13 | F 2.71 | G 2.64 | H 2.93 | K 3.22 | L 2.78 | M 2.57 | N 3.54 | P 2.29 | Q 3.08 | R 2.86 | S 2.77 | T 3.42 | V 3 | W 2.3 | Y 3

Variants of: B2
Experiment: as above
Settings: c terminus: a fixed tail appended

Protein stability index: each site, then its substitutions
Q2: I 1.45 | F 2.17 | D 3.15 | K 2.59 | R 2.59 | E 3.37 | V 3.17
I6: F 2.6 | Q 3.13 | V 3.05 | S 3.5 | D 3.82
K18: M 1.57 | G 2.56 | N 2.94 | W 1.02 | Q 2.5 | E 3.09
T8: P 4.09 | W 2.87 | K 2.47 | F 1.52 | A 2.45 | H 2.81
M14: C 4.14 | W 2.02 | Q 3.06 | V 2.8 | Y 2.57 | K 3.44 | I 2.14 | N 2.67
G21: A 2.98 | R 2.16 | P 2.55 | L 2.31 | Y 2.3 | M 2.13 | D 2.81
S23: L 1.45 | V 2.19 | K 3.09 | E 4.07 | H 2.98 | P 2.4
K17: G 3.58 | Q 3.11 | W 2.66 | L 1.42
C16: S 3.45 | H 3.79 | K 3.41 | Y 3.69 | D 4.91 | A 3.96 | Q 3.93 | E 4.29 | I 2.19
I7: T 2.69 | D 3.49 | G 2.77 | K 2.9 | F 2.97
K11: C 4.08 | V 2.39 | M 1.8 | S 2.9 | F 1.75 | H 3.3 | R 2.9
C13: R 3.95 | G 3.48 | V 2.59 | K 2.82 | E 4.41 | P 3.78 | T 3.83 | D 4.67 | Y 2.91 | M 2.98
K4: D 2.68 | V 2.19 | R 2.53 | G 2.81 | S 2.22 | N 2.83 | C 3.6 | H 2.44 | F 1.42 | M 1.83
Q1: P 2.79 | I 1.9 | A 1.95 | K 1.88 | S 2.57 | N 2.91 | M 1.83 | L 2.62
N22: I 1.75 | T 2.29 | D 3.7 | F 2 | R 1.84 | C 2.98 | E 3.33 | A 2.21 | S 2.62 | V 2.11
V12: C 2.09 | Y 2.31 | Q 2.5 | D 3.87 | G 3.55 | M 2.81 | N 3.68
V15: F 2.92 | I 2.27 | K 3.05 | G 2.71 | Q 2.6
A24: L 1.74 | Q 2.79 | H 2.23 | W 2.07 | C 3.03
E10: R 2.23 | H 2.13 | Y 2.65 | G 2.41
V3: P 3.49 | F 1.89 | D 3.92 | Y 2.58 | I 2.38 | L 2.77 | K 2.89 | N 2.8 | A 2.81 | T 2.82 | M 2.8 | R 2.5
I20: R 3.26 | V 1.95 | K 3.58 | P 3.17
C5: Y 2.69 | V 2.22 | I 2.24 | R 3.48 | E 3.75 | P 3.32
E9: Y 1.9 | H 1.85 | F 2.94 | S 3.77 | I 1.81
K19: V 2.5 | S 2.25 | A 2.38 | C 3.48
